Laboratory results from patent publication US20240409647A1 (SINOMAB BIOSCIENCE, published 2024).

Legend:
[1] = target: T1, human IL-17RB protein (recombinant, R&D systems) (human); test: ELISA, coated receptor; SM17 at 0.08 µg/mL; well 1
T1 construct: Bought protein; also called hIL17RB
T1 sequence (Q9NRM6 whole entry, looked up): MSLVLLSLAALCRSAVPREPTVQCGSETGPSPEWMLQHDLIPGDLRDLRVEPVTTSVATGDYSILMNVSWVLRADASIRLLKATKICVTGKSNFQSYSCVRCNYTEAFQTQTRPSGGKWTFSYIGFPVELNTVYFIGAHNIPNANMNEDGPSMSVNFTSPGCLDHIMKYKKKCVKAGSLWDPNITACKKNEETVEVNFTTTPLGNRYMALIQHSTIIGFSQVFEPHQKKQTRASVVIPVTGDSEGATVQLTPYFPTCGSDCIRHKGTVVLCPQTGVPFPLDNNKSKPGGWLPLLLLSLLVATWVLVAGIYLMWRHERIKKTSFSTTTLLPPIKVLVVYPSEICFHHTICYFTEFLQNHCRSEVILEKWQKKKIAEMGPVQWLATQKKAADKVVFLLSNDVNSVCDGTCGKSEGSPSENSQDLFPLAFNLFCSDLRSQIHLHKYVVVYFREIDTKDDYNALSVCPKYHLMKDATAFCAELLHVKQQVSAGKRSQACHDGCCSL

[2] = target: T2, human IL-17 receptor subunit A (human, UniProt Q96F46 33-320); test: ELISA, coated receptor; SM17 at 0.08 µg/mL; well 1
T2 construct: also called IL17RA; hIL17RA

[3] = target: T3, human IL-17 receptor subunit C (human, UniProt Q8NAC3-2 21-467, limits assumed); test: ELISA, coated receptor; SM17 at 0.08 µg/mL; well 1
T3 construct: also called IL17RC; hIL17RC
T3 sequence (looked up): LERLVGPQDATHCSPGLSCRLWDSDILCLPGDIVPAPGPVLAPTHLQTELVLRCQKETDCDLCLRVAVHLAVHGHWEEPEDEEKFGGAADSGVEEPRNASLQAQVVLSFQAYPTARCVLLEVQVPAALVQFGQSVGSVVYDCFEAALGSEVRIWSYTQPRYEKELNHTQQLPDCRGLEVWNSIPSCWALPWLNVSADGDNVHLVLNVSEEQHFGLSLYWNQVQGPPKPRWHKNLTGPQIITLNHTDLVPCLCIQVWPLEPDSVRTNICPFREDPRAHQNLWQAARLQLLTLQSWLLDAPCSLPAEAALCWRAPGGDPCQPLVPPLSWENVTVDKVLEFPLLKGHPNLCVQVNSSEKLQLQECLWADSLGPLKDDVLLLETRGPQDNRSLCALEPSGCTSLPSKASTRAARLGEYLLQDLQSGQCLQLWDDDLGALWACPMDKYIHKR

[4] = target: T4, human IL-17 receptor subunit D (human, UniProt Q8NFM7 28-299, limits assumed); test: ELISA, coated receptor; SM17 at 0.08 µg/mL; well 1
T4 construct: also called IL17RD; hIL 17RD
T4 sequence (looked up): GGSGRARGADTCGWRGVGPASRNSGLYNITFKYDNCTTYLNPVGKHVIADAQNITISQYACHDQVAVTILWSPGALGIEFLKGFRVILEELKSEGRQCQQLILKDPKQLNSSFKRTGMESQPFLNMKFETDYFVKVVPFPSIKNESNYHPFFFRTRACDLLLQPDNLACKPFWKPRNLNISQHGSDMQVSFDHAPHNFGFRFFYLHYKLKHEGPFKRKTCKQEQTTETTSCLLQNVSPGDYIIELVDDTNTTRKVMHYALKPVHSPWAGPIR

[5] = target: T5, human IL-17 receptor subunit E (human, UniProt Q8NFR9 24-454, limits assumed); test: ELISA, coated receptor; SM17 at 0.08 µg/mL; well 1
T5 construct: also called hIL17RE
T5 sequence (looked up): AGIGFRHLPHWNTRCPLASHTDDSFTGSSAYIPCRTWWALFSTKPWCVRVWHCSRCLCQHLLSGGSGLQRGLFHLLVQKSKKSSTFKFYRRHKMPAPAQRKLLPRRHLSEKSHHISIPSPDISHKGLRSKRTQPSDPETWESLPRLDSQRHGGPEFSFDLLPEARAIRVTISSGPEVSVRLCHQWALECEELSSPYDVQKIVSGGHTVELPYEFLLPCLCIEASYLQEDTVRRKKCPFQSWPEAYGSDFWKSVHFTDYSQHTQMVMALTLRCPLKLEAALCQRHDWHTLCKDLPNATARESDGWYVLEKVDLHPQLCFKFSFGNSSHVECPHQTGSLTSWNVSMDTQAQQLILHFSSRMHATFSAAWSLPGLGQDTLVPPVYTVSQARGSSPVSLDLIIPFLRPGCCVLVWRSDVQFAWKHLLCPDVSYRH

[6] = target: T1, human IL-17RB protein (recombinant, R&D …); test: ELISA, coated receptor; SM17 at 0.016 µg/mL; well 2
[7] = target: T2, human IL-17 receptor subunit A; test: as above
[8] = target: T3, human IL-17 receptor subunit C; test: as above
[9] = target: T4, human IL-17 receptor subunit D; test: as above
[10] = target: T5, human IL-17 receptor subunit E; test: as above
[11] = target: T1, human IL-17RB protein (recombinant, R&D …); test: BLI (Octet RED96), SM17 captured via anti-human Fab CH1, IL17RB in solution; trial 1
From the text: Irrelevant antibody (SM03, anti-human CD22 chimeric IgG1 antibody, SinoMab BioScience Limited) was used as the control reference.

- OD 450 nm Absorption [1]: 0.79 OD450
- OD 450 nm Absorption [2]: 0 OD450
- OD 450 nm Absorption [3]: 0.02 OD450
- OD 450 nm Absorption [4]: 0.03 OD450
- OD 450 nm Absorption [5]: -0.04 OD450
- OD 450 nm Absorption [6]: 0.3 OD450
- OD 450 nm Absorption [7]: -0.04 OD450
- OD 450 nm Absorption [8]: 0.02 OD450
- OD 450 nm Absorption [9]: 0.02 OD450
- OD 450 nm Absorption [10]: -0.04 OD450
- Kd [11]: 194 pM
- koff [11]: 4.3e-05 s⁻¹
- kon [11]: 222000 M⁻¹ s⁻¹
B1: SM17 (antibody, human IgG4 S228P, kappa, V domains shown)
VH: QVQLVQSGAEVKKPGASVKVSCKASGYTFISYWMNWVRQAPGQGLEWMGRIDPYDSEIQYNQKFKDRVTMTRDTSISTAYMELSRLRSDDTAVYYCARSGGFDWFAYWGQGTLVTVSS
VL: DIQMTQSPSSLSASVGDRVTITCRASENINSNLAWYQQKPGKAPKLLLYDVTNLADGVPSRFSGSGSGTDYTLTISSLQPEDFATYYCQHFWGPPYTFGGGTKVEIKR
notes: other paragraphs and claim 15 call the same entries VH and VL; also called humanized anti-IL17RB monoclonal antibody
